Assay results from paper PMC6104087, “Structural basis for membrane tethering by a bacterial dynamin-like pair” (Nature Communications, 2018).

B1: Cj-DLP1 (natural protein, Campylobacter jejuni, UniProt A0A0H3PJL7 1-728, looked up)
chain: MKELFQKIWQNELQFLNFDAKFQDKSKLDTAECAIILSVNKDNYERYFLLKEFQELCKKIDLRVDIFSMQNAQICILNLFKSGFISKQDLLKALKILEKISKNTEIFDFILQEKVQSIDQKALFQNDFKELNTINLELQKLSFDENLKSRLQKTLEKFQNLEFNIAITGVMNAGKSSLLNALLKEDFLGVSNIPETANLTVLSYGKSEEAKIYFWDKKEWQNILESSHFNADLKEFIDKLDKSVNIEDFIKDKPLIQNIALCELKNFSSAKNKISALIKKIEIKSHLEFLKNNISIVDTPGLDDVVVQREIVTNEYLRESDFLIHLMNASQSLTQKDADFLVHCLLNSRLSKFLIVLTKADLLSKKDLEEVIVYTKESLKSRLVDLDENLVEKIDFLCVSAKMASDFYKGLASKESLQKSGMQEFENYLFNELYAGEKSKIALRAYKKELHLELKNILSEYEMQNRLIKENKQGVSEENQKLLLELQKQNTLLKEAQDEISNSIAKLKNIDSGIDNLVLLLAKKLKERLIDEFKYLKNNAQKLNLSRILNIVDITTKDGINDILREIKFENIKKIEELKTNLSLKYDFLKDDFDNGFEGFKDGISKNIDSIFQSEKFALLRLKIEKLSNLKSDLYELETNLDTVIFDTFKEFKMSEILNSLNINGAFFEFLNDKLKHYEKNQKSKLESLEKVLQSLKNQDANILNSFEENLEKIEKLKQLEMGLLNAD
notes: Cj-DLP1, dynamin-like protein of Campylobacter jejuni, gene cj0411, full-length protein, 84.5 kDa; Monomer alone; Two copies stand in the 2:2 tetramer with Cj-DLP2; also called cj0411; CJ0411; source: E. coli BL21 (DE3), purified (HisTrap, gel filtration)
B2: Cj-DLP2 (natural protein, Campylobacter jejuni)
chain: MQINLLNDFIKAYENTYSVSFDDSFKGRIQELCKELNEPFMHASYALENELKELVFSLDKNVNIAIIGQFSSGKSSLLNLILGRDCLPTGVVPVTFKPTFLRYAKEYFLRVEFEDGSDIITNIEKLAFYTDQRNEVKQAKSLHIFAPIPLLEKITLVDTPGLNANENDTLTTLDELKNIHGAIWLSLIDNAGKKSEEDAIKANLELLGENSICVLNQKDKLSAEELDNVLNYAKSVFLKYFNELIAISCKEAKDEQSYEKSNFQSLLDFLTQLDTTVLKEKFVKRKILNLCEILEDENQLFVGIFDRLLNQFQSYEKHLLLAYENFLKEIEILNHQILEQLKSISERISSEIFASVKEKDAYFYKESKGFLKKDLYTRYDYKAPYISSDDAFLAMFYNSDVMSKEFKKIKNELYKSFEEIKMKLKDFINILEREILLFKAEFSNIQKDHIFQSDKNFSELRAFCNASDEYFLKDFKELLFKSILELDLFFEKLNLKAFTNYENATKLSLAFFSRKINESRVLYELDSSEFVLFYPKKSEIYERVLNELNVYEFETLLINKPILTKIAKNFLEQSQNLIQEKNKFLDLKKAELQKRRAQILNVRESIKED
notes: Cj-DLP2, dynamin-like protein of Campylobacter jejuni, gene cj0412, 71.2 kDa; Monomer alone; Two copies stand in the 2:2 tetramer with Cj-DLP1; also called cj0412; CJ0412; source: E. coli BL21 (DE3), purified (amylose resin, TEV cleavage, gel filtration); not shown: MBP, N-terminal, cleaved

Tests used:
Settings in all cases: both partners purified
[1] = target: B2; experiment: SEC-MALS; the two proteins mixed; 100 μl at 1–2 mg/ml on Superdex 200 10/300 GL in TEN 7.5 (20 mM Tris pH 7.5, 1 mM EDTA, 1 mM sodium azide), 1 mM DTT
[2] = target: B1; experiment: crystal structure; Cj-DLP1/2 tetramer, apo (3.7 Å) and with GDP·AlF4¯ (3.9 Å), space group P2(1)2(1)2(1); sitting drop, 0.7–1.0 M succinate pH 7.0, 20 °C
[3] = target: B1; experiment: SEC-MALS; the two proteins mixed; 100 μl at 1–2 mg/ml on Superdex 200 10/300 GL in TEN 7.5 (20 mM Tris pH 7.5, 1 mM EDTA, 1 mM sodium azide), 1 mM DTT

**Q.** Which “stoichiometry N” value [1] does the source give for B1 here?
**A.** 1 Cj-DLP1 per Cj-DLP2 (2:2 tetramer)

**Q.** Does B2 bind [2]?
**A.** binds

B3: Cj-DLP2_(∆trunk-tip) (natural protein)
chain: MQINLLNDFIKAYENTYSVSFDDSFKGRIQELCKELNEPFMHASYALENELKELVFSLDKNVNIAIIGQFSSGKSSLLNLILGRDCLPTGVVPVTFKPTFLRYAKEYFLRVEFEDGSDIITNIEKLAFYTDQRNEVKQAKSLHIFAPIPLLEKITLVDTPGLNANENDTLTTLDELKNIHGAIWLSLIDNAGKKSEEDAIKANLELLGENSICVLNQKDKLSAEELDNVLNYAKSVFLKYFNELIAISCKEAKDEQSYEKSNFQSLLDFLTQLDTTVLKEKFVKRKILNLCEILEDENQLFVGIFDRLLNQFQSYEKHLLLAYENFLKEIEILNHQILEQLKSISERMSKEFKKIKNELYKSFEEIKMKLKDFINILEREILLFKAEFSNIQKDHIFQSDKNFSELRAFCNASDEYFLKDFKELLFKSILELDLFFEKLNLKAFTNYENATKLSRVLNELNVYEFETLLINKPILTKIAKNFLEQSQNLIQEKNKFLDLKKAELQKRRAQILNVRESIKED
notes: Cj-DLP2 of Campylobacter jejuni (cj0412) with amino acids 348-401 and 509-542 within the trunk tip removed; also called Cj-DLP2 with the trunk tip removed; source: E. coli BL21 (DE3), expressed and purified as for native; not shown: MBP, N-terminal, cleaved
**Q.** Does B3 bind [3]?
**A.** binds

B4: Cj-DLP1_(∆trunk) (natural protein)
chain: MKELFQKIWQNELQFLNFDAKFQDKSKLDTAECAIILSVNKDNYERYFLLKEFQELCKKIDLRVDIFSMQNAQICILNLFKSGFISKQDLLKALKILEKISKNTEIFDFILQEKVQSIDQKALFQNDFKELNTINLELQKLSFDENLKSRLQKTLEKFQNLEFNIAITGVMNAGKSSLLNALLKEDFLGVSNIPETANLTVLSYGKSEEAKIYFWDKKEWQNILESSHFNADLKEFIDKLDKSVNIEDFIKDKPLIQNIALCELKNFSSAKNKISALIKKIEIKSHLEFLKNNISIVDTPGLDDVVVQREIVTNEYLRESDFLIHLMNASQSLTQKDADFLVHCLLNSRLSKFLIVLTKADLLSKKDLEEVIVYTKESLKSRLVDLDENLVEKIDFLCVSAKMASDFYKGLASKESLQKSGMQEFENYLFNELYAGEKSKIALRAYKKELHLELKNILSEYEMQNRLIKLKNQDANILNSFEENLEKIEKLKQLEMGLLNAD
notes: Cj-DLP1 of Campylobacter jejuni (cj0411) with amino acids 470-695 (trunk) deleted; also called Cj-DLP1 with the trunk removed; source: E. coli BL21 (DE3), expressed and purified as for native
**Q.** Does B4 bind [1]?
**A.** binds
